Target: T1, HFR1^n-131aa-TBPm3 conjugated protein (UniProt Q9FE22)
T1 sequence: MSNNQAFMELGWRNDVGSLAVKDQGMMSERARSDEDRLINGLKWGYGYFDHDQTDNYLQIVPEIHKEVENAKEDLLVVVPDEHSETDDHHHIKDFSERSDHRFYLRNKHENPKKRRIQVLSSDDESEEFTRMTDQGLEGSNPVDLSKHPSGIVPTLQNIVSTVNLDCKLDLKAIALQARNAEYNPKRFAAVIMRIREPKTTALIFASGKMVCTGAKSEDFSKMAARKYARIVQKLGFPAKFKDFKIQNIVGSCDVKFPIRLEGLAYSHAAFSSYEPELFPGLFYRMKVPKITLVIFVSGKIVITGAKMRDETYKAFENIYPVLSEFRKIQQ

**Q.** How did the “Histochemical GUS staining of post-meiotic anther tapetum, ES transgenic versus F1 [ES x RS]” value turn out when “COP1^L105A (Constitutive photomorphogenic1 with amino acid mutation Leu to Ala)” was run?
**A.** The value was “no staining was appear in the F1 tapetum of the same anther stage”.

**Q.** What about the “Relative expression of BECLIN1 transcript (qRT-PCR) in anther developmental stages of F1 [MS x RS]” value of the same substance?
**A.** The value was “When expression of BECLIN1 was checked in different anther developmental stages, it was found that their expression was abolished”.
